In experiment [1] the target is CS21 on ETEC strain #100171 (enterotoxigenic Escherichia coli (ETEC)). The experiment is described as follows: cell-based or functional assay.
For experiment [2], the target named is CS6 on ETEC strain #100001 (enterotoxigenic Escherichia coli (ETEC)). Briefly: cell-based or functional assay.
In experiment [3] the target is T1, CFA/I fimbrial protein (with adhesin subunit CfaE) on ETEC strain H10407 (enterotoxigenic Escherichia coli (ETEC)) (UniProt P25734).
T1 sequence (looked up): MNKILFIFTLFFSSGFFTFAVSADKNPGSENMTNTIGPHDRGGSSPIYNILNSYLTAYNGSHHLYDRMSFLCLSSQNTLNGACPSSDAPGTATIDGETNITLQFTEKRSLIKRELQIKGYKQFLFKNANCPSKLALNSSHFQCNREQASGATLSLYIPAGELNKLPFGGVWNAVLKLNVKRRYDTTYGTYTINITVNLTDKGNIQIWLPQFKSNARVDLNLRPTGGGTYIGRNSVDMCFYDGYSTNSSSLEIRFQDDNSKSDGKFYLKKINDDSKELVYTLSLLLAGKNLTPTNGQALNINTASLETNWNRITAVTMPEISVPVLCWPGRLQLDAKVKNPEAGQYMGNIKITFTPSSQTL
The experiment is described as follows: cell-based or functional assay.

The target of experiment [4] is CS1 on ETEC strain #200145 (enterotoxigenic Escherichia coli (ETEC)). Briefly: cell-based or functional assay.
Experiment [5] has as its target CS4 on ETEC strain (enterotoxigenic Escherichia coli (ETEC)). The experiment is described as follows: cell-based or functional assay.
Experiment [6] concerns the target CS19 on ETEC strain #204648 (enterotoxigenic Escherichia coli (ETEC)). Briefly: cell-based or functional assay.
The target of experiment [7] is CS3 on ETEC strain #100483 (enterotoxigenic Escherichia coli (ETEC)). The experiment is described as follows: cell-based or functional assay.
In experiment [8] the target is CS2 on ETEC strain #201546 (enterotoxigenic Escherichia coli (ETEC)). The experiment is described as follows: cell-based or functional assay.
The target in experiment [9] is CS17 on ETEC strain (enterotoxigenic Escherichia coli (ETEC)). The experiment is described as follows: cell-based or functional assay.
Experiment [10] has as its target CS14 on ETEC strain #400599 (enterotoxigenic Escherichia coli (ETEC)). The experiment is described as follows: cell-based or functional assay.
In experiment [11] the target is CS5 on ETEC strain #204348 (enterotoxigenic Escherichia coli (ETEC)). Briefly: cell-based or functional assay.
Experiment [12] addresses MBP-CfaE-N (recombinant N-terminal adhesin domain of CfaE fused to an MBP tag) (enterotoxigenic Escherichia coli (ETEC)) (UniProt P25734). The experiment is described as follows: SPR (Biacore T200), CfaE on CM5 chip, VHH injected, 25 C, 1:1 model. On the technique in general: SPR reads the build-up and loss of mass on a sensor chip optically.

B1: VHH antibody 1H4 (monomeric) (VHH)
VHH: EVQLVESGGGLVQAGGSLRLSCAASSRTFNHYNIGWFRQAPGKEREFAAAITWNGRSTLYADSVKGRFTISRDNAKNTVYLQMNSLKPEDTAVYYCATLTTWEHKWEYNSQGQGTQVTVSS
For orientation: Kd means the equilibrium constant for the complex coming apart. The koff is the first-order rate constant of dissociation. In general, kon refers to a measure of how fast the partners come together. For B1, the MRHA IC100 in [1] worked out at 25 µg/mL; in experiment [2], 25 µg/mL; in experiment [3], 200 µg/mL; in [4], 100 µg/mL; in experiment [5] it was 25 µg/mL; in experiment [6], 100 µg/mL. Also, the MRHA IC100 came to 100 µg/mL in experiment [7]; 100 µg/mL in [8]; 6.25 µg/mL in experiment [9]; 100 µg/mL in [10]; 3.12 µg/mL in [11]. Besides, the Kd in experiment [12] is 18.3 nM. Moreover, the dissociation rate constant (koff) in experiment [12] was found to be 0.000513 s⁻¹. In experiment [12], the kon was 28100 M⁻¹ s⁻¹.

B2: dimeric 2R215 (VHH)
chain: QVQLQESGGGLVQAGGSLRLSCAASGNIFQDAEMGWYRQAPGKEREFVATIAYGGNTNYADSVKGRFTISRDNAKNTVYLQMNSLKPEDTAVYYCAVYTGVYYDRTTGGYVAFEYWGQGTQVTVSSGGGGSGGGGSGGGGSGGGGSGGGGSGGGGSQVQLQESGGGLVQAGGSLRLSCAASGNIFQDAEMGWYRQAPGKEREFVATIAYGGNTNYADSVKGRFTISRDNAKNTVYLQMNSLKPEDTAVYYCAVYTGVYYDRTTGGYVAFEYWGQGTQVTVSSHHHHHH
In experiment [3], B2 yielded a Caco2 adhesion assay: concentration at which adhesion was inhibited of 1.8 µM and an MRHA IC100 of 1.25 µM.

B3: trimeric 2R215 (VHH)
chain: QVQLQESGGGLVQAGGSLRLSCAASGNIFQDAEMGWYRQAPGKEREFVATIAYGGNTNYADSVKGRFTISRDNAKNTVYLQMNSLKPEDTAVYYCAVYTGVYYDRTTGGYVAFEYWGQGTQVTVSSGGGGSGGGGSGGGGSQVQLQESGGGLVQAGGSLRLSCAASGNIFQDAEMGWYRQAPGKEREFVATIAYGGNTNYADSVKGRFTISRDNAKNTVYLQMNSLKPEDTAVYYCAVYTGVYYDRTTGGYVAFEYWGQGTQVTVSSGGGGSGGGGSGGGGSQVQLQESGGGLVQAGGSLRLSCAASGNIFQDAEMGWYRQAPGKEREFVATIAYGGNTNYADSVKGRFTISRDNAKNTVYLQMNSLKPEDTAVYYCAVYTGVYYDRTTGGYVAFEYWGQGTQVTVSSHHHHHH
Consider B3, for which, in [3], the Caco2 adhesion assay: concentration at which adhesion was inhibited turned out to be 0.567 µM and the MRHA IC100 is 2.5 µM.

For the origin of these results see patent US20220025022A1.
